Data on 41 sequences can be found in the nanobody polyreactivity screen of Harvey et al. (2022).

This series can be described thus: yeast display, Sf9 membrane polyspecificity reagent, FACS + sequencing; frameworks hold sequencing errors. In outline:
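After 36–48 hours of galactose induction, yeast (Saccharomyces cerevisiae BJ5465) displaying a synthetic nanobody library were stained at 4 °C for 1 hour with 10% biotinylated, detergent-solubilized Sf9 membrane reagent. Streptavidin microbeads enriched the stained cells before FACS sorting into low and high (top ~1%) gates on anti-HA and streptavidin fluorescence. Each clone's polyreactivity label reflects its gate of origin.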
Take “QVQLVESGGGLVQAGGRLRLSSAASGSIFDLYAMGWYRQAPGKERELVASIRYSGGRTYYADSVKGRFTISRDNAKNSVYLQMNSLNPEDTAFYYCNRDGGYTFIMDYWGQGTQVTVSS”: the “polyreactivity (PSR sort gate)” value is listed as “low polyreactivity”.
For “QVQLVESGGGLVQAGGSLRISWAASGSTFGYYAMGWYRQAPGKDREWVAAISLGGGSTYYADSVKGRFTISRDNAKNTVYLQMNSLKPDDTAVYYCAARPYVRVKWKFNYWGQGTQVTVSS”, the “polyreactivity (PSR sort gate)” value was “low polyreactivity”.
Take “QVQLIESGGGLVQAGGSLRLSCAASGYTFGAYAMGWYRQAPGKERELVAGITFIGGSTYYADSVKGRFTISRDNAKNTVYLQMNSLKPEDTAVYYCAAPIAFGYRGTVAKYGYWGQGTQVTVSS”: the “polyreactivity (PSR sort gate)” value was “low polyreactivity”.
For the sequence “QVQLVESVGGLVQAGGSLRLSCAASGRIFLYYAIGWYRQAPGKERELVAVISWSGGSTYYADSVKGRFTISRDNAKNTVYLQMNILKPEDTAVYYCAADVVPTWYGYNYDYWGQGTQVTVSS”, the “polyreactivity (PSR sort gate)” value is “high polyreactivity”.
Then “QDQLVESGGGLVQAGGSLRLSCAASGRTFTTNDMGWYRQAPGKEWELVAGISWSGGSTFYADSVKGRFTISRDNAKNTVYLQMNSLKPEDTAVYSCATSARSYQSAYGHYTWYDYWGQGTQVTVSS”, with “low polyreactivity”.
In the case of “QVQLVESGGGLVQAGGRLRLSCAPSGNIFRYYVMGWYRPAPGKEREFLAAITSSGGSTYYADSVKGRFTISRDNAKNTVYLKINSLKPEDTEVYYCAKDYWDPGWAEYDYWGQGTQVTVSS”, the “polyreactivity (PSR sort gate)” value is given as “low polyreactivity”.
In the case of “QVQLVESGGGLVQAGGSLRLSCAASGSIFRHNAMGGYRQSPGKERELVAAISRRASSTYYADSVKGRFTISRDNAKNTVYLQLNSLKPEDTAVYYCAVVPSTTYHAYDYWGQGTQVTVSS”, the “polyreactivity (PSR sort gate)” value was “high polyreactivity”.
The value for “QVQLVESGGGLDQAGGSLRLICAASGLTFPYYARGWSIQAPGKEMEVVAGITDDGGDTYYADSVKGRLTISRDYAKNTVYLQMNSLKPEDTAVYFCAADGWFQGWFGYGYWGQGTQVTVSS” was “high polyreactivity”; that for “QVQLVESGGGLVQAGGSLRLSCAASGRIFRPYAMGWYRQAPGKERELVASISWRGSSTYYADSVKGRFTISRDNAKNTVYLQMNSLKPEDTAVYYCAARPYTLAFYRYGYWGQGTQVTVSS” was “high polyreactivity”.
Then “QVQLVETGGGLVQAGGSHRLSCAASGSIFGKNVIGRYRQAPGKERELVAAITSGASTYYADSVKGRFTISRDNAKNTVYLQINSLKPEDTAVYYCAARRWRKYYSGYNYWGQGTQVSVSS”, with “high polyreactivity”.
“QVQLVESGGGLVQAGGSLRLSCAASGSTFFPNAMGWYRQAPGKERELIADISISGGSTRYADSVKGRFTISRDNEKNTVYLQMNSLKPEDTAVYYCAVRRSAFYARFGRNYWGQGTQVTVSS”: the “polyreactivity (PSR sort gate)” value is reported as “low polyreactivity”.
The value for “QVQLVESGGGLVQAGGSLRLSCAASGRIFWYYAMGWYRQAPGKERELVASIRWGGGNTYYADSVKGRFTISRDNAKNTVYLQMNSLKPEDTAVYYCAKSKVSPSGDFYYWGQGTQVTVSS” was “high polyreactivity”.
For the sequence “QVQLVESGGGLVQAGGSLRLSCAASGRIFSRYAMGWYRQAPVKERELVATITRSGARTYYADSVKGRFTISRDNAKNTVYLQMNSLKPEDTAVYYCATPYKYVTGEDYWGQGTQVTVSS”, the “polyreactivity (PSR sort gate)” value is listed as “high polyreactivity”.
For “QVQHVDSGGGLVQAGGSLRLSCAASGSTFQLYAMGRDRQAPGKERELVASISWSGGSTYYADSVKGRFTISRDNAKNTVYLQMNSLKPEDTAVYSCNDDFWWRYRPGAVFPSYGYWGQGTQVTVSS”, the “polyreactivity (PSR sort gate)” value is “low polyreactivity”.
On to “QVQLVETGGGLVQAGGSLRLICAASGSTFQPYAMGWYRQAPGKEREFVATISGSAGSTYYADSVKGRFKISRDNAKNTVYLQMNSLKPEDTAVYYCNADSGWFGYDYWGQGTQVTVSS”, for which the “polyreactivity (PSR sort gate)” value was “low polyreactivity”.
Then “QDQLVESGGGLVQAGGSLRLSCAASGIIFGYYAMGWDRQAPGKERELVAAISSGGTTSYADSVKGPFTISRDNEKNTVSLQMNSLKPEYTAVYYCAARDGYDGFYYWGQGTQVTVSS”, with “low polyreactivity”; and “QVQLQESGAGLVQAGGSLRLCCAASGSIFYVYGMGWYRQAPGKERELVAGINAGTNTNYADSVRGRFTISRDNAKNTVHLQMNSLKPEDTAVYYCAADGNGYQAHEYWGQGTQVTVSS”, with “high polyreactivity”; and “QVQLVETGGGLVQAGGSHSLSCAASVRTVSSYARGWCRQAPGTERELVARITWSGGTYYADSVKGRFTISRDNAKNTVYLQMNRLKPEDTSVYYCAKRSYYWEYYYWGQGTQVTVSS”, with “high polyreactivity”.
Then “QVQLVESGGGLVQAGGSLRLSCAASGLTFIYYAMGWYRQAPGKERELVAAISTSGASTYYADSVKGRFTISRDNAKNTVYLQMNSLKPEDTAVYYCNAEYFGEYRDYGYWGQGTQVTVSS”, with “low polyreactivity”; and “QVQLVESVGGLVQAGGSLRLSCAGSGRIFRNYAMGWYRQAPGKERELVAAISDSSGSTYYADSVKGRFTISRDNAKNTVYLQMNILKPEHTAVYFCRYYFGSGYYYWGQGTQVTVSS”, with “high polyreactivity”.
In the case of “QVQLVESGGGLVQAGGSLRLSCAASGLIFRWYAMAWYRQAPGKERELVAAISRRGGTTNYADSVKGRFTISRDNAKNTVYLQMNTLKPEDTAVYYCAADYQSVGGAEYDYWGQGTQVTVSS”, the “polyreactivity (PSR sort gate)” value was “high polyreactivity”.
Then “QVQLVESGGGLVQAGGSLRLSCAASGRTFVSNAMGWYRQAPGKERELVAAISFSGDSTYYADSVKGRFTISRDNAKKTVYLQMNSLKPEDTAVYYCRFYSYWSWLGREYDYWGQGTQVTVSS”, with “low polyreactivity”; and “QVQLVESGGGLVQAGGSLRLSCAASGRTSIWNSMGWYRQAPGKERELVASISWSGGSTYYADSVKGRFTISRDNAKNTVYLQMNSLKPEDTAVSYCAKTAYFLVFNEHLHNKRYDSWGQGTQVTVSS”, with “low polyreactivity”; and “QVQLVESGGGLVQAGGSLRLSCAASGSTFNTYAMGWYRQAPGKERELVAAITWRGGRTYYADSVKGRFTISRDNAKNTVYLQMISLKPEDTAVYYCNTLRPRLDGVYGYDYWGQGSQVTVSS”, with “high polyreactivity”.
The value for “QVQLVESGGGLVQAGGSLRLSCAASGFTFFIYAMGWYTQAPGKEREFVAAITGSGGSTYYADSEKGRFTISRDNAKNTVYLQMNSLKTEVTAVYYCATGYWGRRRGGWRSGYWGQGTQVTVSS” was “high polyreactivity”; that for “QVQLVESGGGLVQAGGSLRLSCAASGLTFTSYPMVWYRQAPGKERELVAAIDWSGGRTYYADSVKGRFTISRDNAKNTVYLQMNSLKPEDTAVYYCAAYSRNRALRFNYWGQGTQVTVSS” was “high polyreactivity”.
The value for “QVQLVESAGCLVQAGGSLRLSCDASGIIFKVYAMGWYSQAPGKEREWVAAISWSGSSTYYADTVKGRFTISRDKAKNTVYLQMNSLKPEDTAVYYCAAYSVARSMGYWGQGTQVTVSS” was “high polyreactivity”; that for “QVQLVESGGGLVQAGGSLRLSCAASGSIFPYNAMGWYRQAPGKERELVAAISKRGGSTYYADSVKGRFTISRDNAKNTVYFQMNSLKPEDTAVYYCAARYPPYRSWYSYDYWGQGTQVTVSS” was “low polyreactivity”; that for “QVQLVESGGGLVQAGGSLRLICAASGRIFTAYVMGWYRQAPGKERQLVAAITEGGGNTYYADSVKGRFTISRDNAKNTVYLQMNSLKPEDTAVYYCAARYLVNGRKRLYYWGQGTQVTVSS” was “high polyreactivity”.
As for “QVQLVESGGGLVQAGGSLRLSCAASGRIFYGYAMGWYRQAPGKEREFVAAITVSAGSTYYADSVKGRFTISRDNAKNTVYLQMNSLKPEDTAVYYCAAKRYVYPSYRFDYWGKGTQVTVSS”, the “polyreactivity (PSR sort gate)” value was “low polyreactivity”.
“QVQLVESGGGLFQAGGSLRLSCAASGSTLWRNAMGWYRQATGKERELVAAITRRGGITYYADSVKGRFTISRDNAKNTVYLQMNSLKPEDTAVYYCNAVRSTDGSDYWGQGTQVTVSS”: the “polyreactivity (PSR sort gate)” value was “high polyreactivity”.
Take “QVQLLESGGGLVQAGGSLRLSCAASGSTLKLNAMGWYRQAPGKDRELVAAITRSGGSTNYADSVKGRFTISRDNAKNTVSLQMNSLKPEDTAVYDCAADVLWDEFGYWGQGTQVTVSS”: the “polyreactivity (PSR sort gate)” value is reported as “low polyreactivity”.
As for “QVQLVESGGGLVQAGASLRLSCAASGSISKSYAMGWYRQAPGKERELVAAISWRGGSTYADSVKGRFTISRDNAKNTVYLQMNSLKPEDTAVYYCAATNYGTFWGGQSERYDYWGQGTQLTVSS”, the “polyreactivity (PSR sort gate)” value was “low polyreactivity”.
Then “QVQLVESGGGLVQAGGSLRLSCAASGIIFNGNTMGWYRQAPGKERELVAAITSGGTTSYADSVKGRFTISRDNAKNTVYLQMNSLKPADTAVYYCAADHPAFGPGYSFDYWGQGTQVTVSS”, with “low polyreactivity”; and “QVQLVESGGGLVQAGGSLRLSCAASGSIFKYYAMGWYRQAPGKERELVAAISRSGTSTYYADSVKGRFTISRDNAKNTVYLQMNSLKPEDTAVYYCAARLSYYSRMNYWGQGTQVTVSS”, with “high polyreactivity”.
The value for “QVQLVESGGGLFQAGGSLRLSCAASGSTFAVYAMGWYRQAPGKERELVAVISWSDGRTYYADSVKGRFTISRDNAKNTVYLQMNSLKPEDTAVYYCNARLDTFVPRYGYWGHGTQVTVSS” was “high polyreactivity”; that for “QVQLVESGGGLVQARGSLRLSCAASVIIFRLYGRGWYRQAPGKEREFVATITWRGGRTNYADSVKGRFTISRDNAKNTVYLQMNSLKPEDTAVYYCAKVVRYARSNEYDSWGQGTQVTVSS” was “low polyreactivity”.
Then “QVQLVESGGGLVQAGGSLRISCAASGFTYRKNAMGWDRQAPGKERELVAAITQSSGRTYYADTVKGRFTISRDNAKNTVYLQMNSLKPEDTAVYYCAARGVWPEYDYWGQGTQVNVSS”, with “low polyreactivity”; and “QVQLVESGGGIVQAGGSLRLSCAASGRIFVLYAMGSYRQAPGKERELVADITVSGGRTYYADSVKGRFTISRDNAKYTVYLQMNSLKPEDTAVYYCAASPRSYYWRYYQEDYWGQGTQVTVSS”, with “high polyreactivity”.
In the case of “QVQLVESGGGLVQAGGSLRLSCAASGITFGSYAMGWYRQAPGKERELVAAISRSGGSTYYADSVKGRFTISRDNEKNTVYLQMNSLKPEDTAVYYCAVRYVYYREGDYWGQGTQVTVSS”, the “polyreactivity (PSR sort gate)” value is “high polyreactivity”.
The value for “QVQLVESGGGLVQAGGSLRLSCAASGRTFRVYTMGWYRPAPGKERELVAVISGRGGSTSYADSVKGRFTISRDNAKNSVYVQINSLKPEDTAVYYCAALYTQSNSASMYYWGQGTQVTVSS” was “high polyreactivity”.
